The target in experiment [1] is T1, CD20 (human, UniProt P11836 1-297).
T1 construct: whole, on cells; Target on B-lymphoma cells in flow cytometry; also called CD20 antigen; B-lymphocyte-restricted differentiation antigen
T1 sequence (looked up): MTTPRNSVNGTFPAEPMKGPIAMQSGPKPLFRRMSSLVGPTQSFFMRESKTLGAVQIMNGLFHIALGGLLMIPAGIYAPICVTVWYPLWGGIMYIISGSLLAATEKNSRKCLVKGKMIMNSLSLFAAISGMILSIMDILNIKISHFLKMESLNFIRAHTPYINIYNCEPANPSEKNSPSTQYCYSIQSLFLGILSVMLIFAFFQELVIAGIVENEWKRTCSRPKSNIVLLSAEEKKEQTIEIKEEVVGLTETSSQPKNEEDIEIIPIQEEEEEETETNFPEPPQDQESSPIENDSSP
Kind of experiment: flow cytometry on SUDHL4 (SU-DHL4) cells, MFI against antibody concentration.

Experiment [2] deals with T2, FcγRIIIA recombinant protein (UniProt P08637 17-208, limits assumed).
T2 construct: also called FcRIIIA
T2 sequence (P08637 17-208 limits assumed): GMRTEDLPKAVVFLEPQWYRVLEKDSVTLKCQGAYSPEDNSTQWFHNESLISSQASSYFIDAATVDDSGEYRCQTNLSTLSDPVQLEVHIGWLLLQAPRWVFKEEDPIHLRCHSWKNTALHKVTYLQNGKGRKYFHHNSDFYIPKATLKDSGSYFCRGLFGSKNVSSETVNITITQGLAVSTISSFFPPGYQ
Kind of experiment: SPR, Biacore T200; antibody captured on anti-human Fab chip, FcγRIIIA injected (12.5-200 nM), single cycle kinetics, 1:1 model; Rituxan reference, not glycoengineered; upper end of the range. On the procedure:
(§1) FcγRIIIA was transfected into HEK-293 cell line to express recombinant protein. The secreted FcγRIIIA recombinant protein was purified and then diluted to serial concentration in HBS-EP buffer (200 nM, 100 nM, 50 nM, 25 nM, and 12.5 nM). […] A serial titration of FcγRIIIA was injected and bound at the flow rate of […]. Single cycle kinetics data was fitted into 1:1 binding model using Biacore T200 evaluation software to measure the equilibrium constant (Ka/Kd).
For orientation: In SPR one partner is held on a chip, and binding of the other changes the refractive index at the surface.

Experiment [3] addresses T2, FcγRIIIA recombinant protein. Kind of experiment: SPR, Biacore T200; antibody captured on anti-human Fab chip, FcγRIIIA injected (12.5-200 nM), single cycle kinetics, 1:1 model. How it is done: as §1
Experiment [4] concerns the target T1, CD20. The experiment is described as follows: flow cytometry on Ramos cells (CD20+ B lymphoma), MFI against antibody concentration. On the procedure: Binding to B-lymphoma cells. The binding of the antibodies was investigated in CD20⁺ B lymphoma cell lines (Ramos and SKW6.4) and analyzed on flow cytometry. The cells in PBS containing 1% fetal bovine serum at 2×10⁵/well on microplate were incubated on ice for 1 hr with antibodies of interest at different concentrations. The cells are washed, re-suspended in the PBS buffer, and incubated with the detecting goat anti-hIgG-Fcγ-PE on ice for 30 min. The cells are washed and subjected to analysis on FACS.
(A flow cytometer gives signals particle by particle.)

For experiment [5], the target named is T2, FcγRIIIA recombinant protein. The experiment is described as follows: SPR as above; category letter explained in the note of Table 4. On the procedure: as §1
For experiment [6] the target is unchanged. Kind of experiment: >. On the procedure: as §1

B1: Rituximab (antibody, human IgG1, kappa)
heavy: not shown
light: QIVLSQSPAILSASPGEKVTMTCRASSSVSYIHWFQQKPGSSPKPWIYATSNLASGVPVRFSGSGSGTSYSLTISRVEAEDAATYYCQQWTSNPPTFGGGTKLEIKRTVAAPSVFIFPPSDEQLKSGTASVVCLLNNFYPREAKVQWKVDNALQSGNSQESVTEQDSKDSTYSLSSTLTLSKADYEKHKVYACEVTHQGLSSPVTKSFNRGEC
modifications: heterogeneous N-glycans at Asn-297 of the Fc (more than 50 glycoforms; greater than 90% of N-glycans are fucosylated)
notes: Chimeric anti-CD20 IgG made in CHO cells, purchased from Genentech; DrugBank DB00073; also called Rituxan; RTX
As usually defined, the EC50 (read off the curve) is the concentration needed to bring the measured effect to its halfway point. Broadly, the Kd is a measure of binding affinity in units of concentration. As for B1, the “EC50 (read off the curve)” value with CD20 [1] and in the experiment with CD20 [4] was around 0.6 µg/mL throughout. Moreover, the equilibrium dissociation constant (Kd) in experiment [2] is at most 300 nM; in experiment [3], 100 nM.

B2: anti-CD20 GAb105 (antibody, human IgG1, kappa)
heavy: not shown
light: QIVLSQSPAILSASPGEKVTMTCRASSSVSYIHWFQQKPGSSPKPWIYATSNLASGVPVRFSGSGSGTSYSLTISRVEAEDAATYYCQQWTSNPPTFGGGTKLEIKRTVAAPSVFIFPPSDEQLKSGTASVVCLLNNFYPREAKVQWKVDNALQSGNSQESVTEQDSKDSTYSLSSTLTLSKADYEKHKVYACEVTHQGLSSPVTKSFNRGEC
modifications: homogeneous N-glycan at Asn-297, no core fucose: glycan-105 (GalGlcNAc2Man3GlcNAc) transferred onto the GlcNAc of GAb201
notes: the text gives them the other way round
Turning to B2, in experiment [5], the “Fold (increase against Rituxan)” value was above 30 fold.

B3: anti-CD20 GAb106 (antibody, human IgG1, kappa)
heavy: not shown
light: QIVLSQSPAILSASPGEKVTMTCRASSSVSYIHWFQQKPGSSPKPWIYATSNLASGVPVRFSGSGSGTSYSLTISRVEAEDAATYYCQQWTSNPPTFGGGTKLEIKRTVAAPSVFIFPPSDEQLKSGTASVVCLLNNFYPREAKVQWKVDNALQSGNSQESVTEQDSKDSTYSLSSTLTLSKADYEKHKVYACEVTHQGLSSPVTKSFNRGEC
modifications: homogeneous N-glycan at Asn-297, no core fucose: glycan-106 (GalGlcNAcMan3GlcNAc) transferred onto the GlcNAc of GAb201
notes: as for B2
As for B3, the Kd in experiment [3] was in the range of 7 to 30 nM.

B4: anti-CD20 GAb104 (antibody, human IgG1, kappa)
heavy: not shown
light: QIVLSQSPAILSASPGEKVTMTCRASSSVSYIHWFQQKPGSSPKPWIYATSNLASGVPVRFSGSGSGTSYSLTISRVEAEDAATYYCQQWTSNPPTFGGGTKLEIKRTVAAPSVFIFPPSDEQLKSGTASVVCLLNNFYPREAKVQWKVDNALQSGNSQESVTEQDSKDSTYSLSSTLTLSKADYEKHKVYACEVTHQGLSSPVTKSFNRGEC
modifications: homogeneous N-glycan at Asn-297, no core fucose: glycan-104 (Gal2GlcNAc2Man3GlcNAc) transferred onto the GlcNAc of GAb201
notes: as for B2
Take B4: in experiment [5], the “Fold (increase against Rituxan)” value was above 30 fold.

B5: anti-CD20 GAb101 (antibody, human IgG1, kappa)
heavy: not shown
light: QIVLSQSPAILSASPGEKVTMTCRASSSVSYIHWFQQKPGSSPKPWIYATSNLASGVPVRFSGSGSGTSYSLTISRVEAEDAATYYCQQWTSNPPTFGGGTKLEIKRTVAAPSVFIFPPSDEQLKSGTASVVCLLNNFYPREAKVQWKVDNALQSGNSQESVTEQDSKDSTYSLSSTLTLSKADYEKHKVYACEVTHQGLSSPVTKSFNRGEC
modifications: homogeneous N-glycan at Asn-297, no core fucose: glycan-101 (Sia2Gal2GlcNAc2Man3GlcNAc) transferred onto the GlcNAc of GAb201; 2,6 sialic acid linkage
notes: as for B2
For B5, the “EC50 (read off the curve)” value in the experiment with CD20 [1] is around 0.7 µg/mL. Further, in experiment [6], the “Fold (increase against Rituxan)” value turned out to be 30 fold.

B6: anti-CD20 GAb102 (antibody, human IgG1, kappa)
heavy: not shown
light: QIVLSQSPAILSASPGEKVTMTCRASSSVSYIHWFQQKPGSSPKPWIYATSNLASGVPVRFSGSGSGTSYSLTISRVEAEDAATYYCQQWTSNPPTFGGGTKLEIKRTVAAPSVFIFPPSDEQLKSGTASVVCLLNNFYPREAKVQWKVDNALQSGNSQESVTEQDSKDSTYSLSSTLTLSKADYEKHKVYACEVTHQGLSSPVTKSFNRGEC
modifications: homogeneous N-glycan at Asn-297, no core fucose: glycan-102 (SiaGal2GlcNAc2Man3GlcNAc) transferred onto the GlcNAc of GAb201
notes: as for B2
In the case of B6, the “Fold (increase against Rituxan)” value in experiment [5] was above 30 fold.
